Reference: the DeepSol protein solubility set

Experiment: soluble on expression in E. coli; label from the status in PepcDB or PDB records

Sequence | soluble on expression in E. coli
VCQILEVDRSTYHYKSRRPGQASLESKIKEICQTRVRYGYRRVHVLLRREGWLINQKKTRRIYRELGLQLRNKTPKRRVRAKLRDDRRDATHPNETWAMDFVHDQLATGNKIRVLTVVDLFSRYSPVLDPRFSYRAENVVQTLEHTWAAVGYPKTIRVDQGSEFISRELDLWAYSNGVTLDFSRPGKPTDNAFIEAFNGRFRAECLNTHWFLTLDDARSKLEDWRRYYNEQRPHGAIGNRPPITLHNRDSDPSSPS | soluble
VDREQLVQKARLAEQAERYDDMAAAMKNVTELNEPLSNEERNLLSVAYKNVVGARRSSWRVISSIEQKTSADGNEKKIEMVRAYREKIEKELEAVCQDVLSLLDNYLIKNCSETQYESKVFYLKMKGDYYRYLAEVATGEKRATVVESSEKAYSEAHEISKEHMQPTHPIRLGLALNYSVFYYEIQNAPEQACHLAKTAFDDAIAELDTLNEDSYKDSTLIMQLLRDNLTLWTSDQQDDDGGEGNN | soluble
VERMYDVTPPGVVMGLAWTAMGGSTLFVETSLRRPQDKDAKGDKDGSLEVTGQLGEVMKESARIAYTFARAFLMQHAPANDYLVTSHIHLHVPEGATPKDGPSAGCTIVTALLSLAMGRPVRQNLAMTGEVSLTGKILPVGGIKEKTIAAKRAGVTCIVLPAENKKDFYDLAAFITEGLEVHFVEHYREIFDIAFPDEQAEALAVER | soluble
VFIDESKEHLQTCNEKLLLLEKDPTDLQLVHDIFRAAHTLKGMSATMGYTDLAHLTHLLENVLDAIRNGDMEVTSDWLDILFEALDHLETMVQSIIDGGDGKRDISEVSAKLDVNGAHAESAASAEPAEAQSSASDWEYDEFERTVIQEAEEQGFKRYEIKISLNENCMLKAVRVYMVFEKLNEVGEVAKTIPSAEVLETEDFGTDFQVCFLTHQSAEDIEQLINGVSEIEHVEVIQGAPLTSAEKPEESKQEDSPAAAVPANEEKQKQPAKNDEQAKHSAGGSKTIRVNIDRLDSLMNLFEELVIDRGRLEQIAKELEHNELTETVERMTRISGDLQSIILNMRMVPVETVFNRFPRMIRQLQKELNKKIELSIIGAETELDRTVIDEIGDPLVHLIRNSIDHGIEAPETRLQKGKPESGKVVLKAYHSGNHVFIEVEDDGAGLNRKKILEKPLERVITEKEAETLEDNQIYELIFAPGFSTADQISDISGRGVGLDVVKNKLESLGGSVSVKSAEGQGSLFSIQLPLTLSIISVLLIKLEEETFAIPISSIIETAVIDRKDILQTHDREVIDFRGHIVPVVYLKEEFKIEDTRKDAEQLHIIVVKKGDKPTAFVVDSFIGQQEVVLKSLGDYLTNVFAISGATILGDGEVALIID | not soluble
VGTIDQLVKRVIEGSLSPKERTLLKEDPAYWFLSDENSLEYKYYKLKLAEMQR | soluble
VGTRSKSRTRQLKQSNGCTATTSGASDRRRRARRRTAPAWLREDEWLRHHLPHPPRQLSRCLHRRRRSACHHRYSRRTPKGGLPMTSSLVPISEARAHLSRLVRESADDDVVLMNHGRPAAILISAERYESLMEELEDLRDRLSVHEREHVTMPLDKLGAELGVDIGRV | not soluble
VISCDDVPEDLETDHLFSSQMVAVVAPEHELAQREAITFDEFFEHELVMFQHGYFHREFLDHVSEEHGFSMKSSFETNLLPLILSIVRQEFAITALLELVTQNEKGVVGIPFHPPVTLDLALAWRKEGYLSIADRTFIDFVKRYV | not soluble
VKIELTVNGLKIQAQYQNEEIENVHKPLLHMLAALQTVNPQRRTVVFLCAPPGTGKSTLTTFWEYLAQQDPELPAIQTLPMDGFHHYNSWLDAHQLRPFKGAPETFDVAKLTENLRQVVEGDCTWPQYDRQKHDPVEDALHVTAPLVIVEGNWLLLDDEKWLELASFCDFSIFIHAPAQILRERLISRKIAGGLTRQVAEAFYARTDGPNVERVLMNSRQANLIVEMTEEGRYHFTS | soluble
VKLVIDLLGAQTRSHLRGIGRYTRELTKALLRQAGEAHAIHLVLHAPLEQASDALIAEFGALLPRARIHLLRLPRHTSEHLTGNTWRHHAASRLSRYGLTCLDADVVWHSSVFEGYDEDGVLPDAPLFHTNRVATLYDLIPLHDPEVFLPGSLPKAWYERRSAFLSSCDLLFCLSEWTAQEAVQRLHLDPERLVVIGGGVDSNFRPLVFDAQQRGNLLARFSITRPYVLYNGGLDQRKNVPALLRAFALLPMAIRQRHQLVVLGDDREVHRPMMALCRQLGLDQQEVVFTGRVNDSDLVALYGLCALFVFPSRLEGFGLPVLEAMACGAPTLCSDAASLPEVAGRQDILFPPEDHVALSARMSQVLDDPQWLQSLRDYGLRRATAFTWDRVAQRALDALTRLQVRSSEMKSQRVSEVSPATHTETAAPEMLPITEIQLVTDLAALPGDASRDDLAQAAFSICSMRVAPQAPQWLVDVSQIAKTDIGTGTSRVTRSILREWLSTPPPGVCIVPVYLREGQYHYARSFTAQVLGLVSETPQEGIVMVYPGDVFVGLDWAPEAINAARARLQDWRRVGVATCFVVHDLLPMTLPDCFHPYSRNLFEQWLRTVAHLADAIACISATTAEVLSRWLQDTTVDYQFGIPPQVKHFPLGVSFPEVSTAQEAIREELRTALVMRPTLLIVGTLEPRKGHVHALRICEQLWEQGEDVNLVVVGQRGWSEQALVMRLTRHPEVGRRLFWLSDAADAELSALYVHATALLALSEGEGYGLPLLEAAHFRLPILARPLPVFLEIMADYPHYLDGTAPDTWSATVAQWLHASDRPISRPVPIASWKESAQQLADIVNDCRFLLDSKKLSAPLK | soluble
VKRGLKPIVGLNQHIQQISPEQMGIRLDPDSLPIELRELANKHNAMLDRLQTGFRRLSEFSSDIAHELKTPLTNITTQNQVILGACRTSEEYQDAIASTLEELNRITKTINDLLYIAKAENKLIHRHDEVFAVQEEIDRLVAYFEILAEDAEVRIVSSGDGQLYM | not soluble
VLLAIDVRNTHTVVGLLSGMKEHAKVVQQWRIRTESEVTADELALTIDGLIGEDSERLTGTAALSTVPSVLHEVRIMLDQYWPSVPHVLIEPGVRTGIPLLVDNPKEVGADRIVNCLAAYDRFRKAAIVVDFGSSICVDVVSAKGEFLGGAIAPGVQVSSDAAAARSAALRRVELARPRSVVGKNTVECMQAGAVFGFAGLVDGLVGRIREDVSGFSVDHDVAIVATGHTAPLLLPELHTVDHYDQHLTLQGLRLVFERNLEVQRGRLKTAR | soluble
VNFDDIASSENLLHLTANRPKMPGRRLPG | soluble
VNTFSVSRLALALAFGVTLTACSSTPPDQRPSDQTAPGTSSRPILSAKEAQNFDAQHYFASLTPGAAAWNPSPITLPAQPDFVVGPAGTQGVTHTTIQAAVDAAIIKRTNKRQYIAVMPGEYQGTVYVPAAPGGITLYGTGEKPIDVKIGLSLDGGMSPADWRHDVNPRGKYMPGKPAWYMYDSCQSKRSDSIGVLCSAVFWSQNNGLQLQNLTIENTLGDSVDAGNHPAVALRTDGDQVQINNVNILGRQNTFFVTNSGVQNRLETNRQPRTLVTNSYIEGDVDIVSGRGAVVFDNTEFRVVNSRTQQEAYVFAPATLSNIYYGFLAVNSRFNAFGDGVAQLGRSLDVDANTNGQVVIRDSAINEGFNTAKPWADAVISNRPFAGNTGSVDDNDEIQRNLNDTNYNRMWEYNNRGVGSKVVAEAKK | soluble
VPQIDTRDCGPAVLASVAKHYGSNYSIAYLRELSKTNKQGTTALGIVEAAKKLGFETRSIKADMTLFDYNDLTYPFIVHVIKGKRLQHYYVVYGSQNNQLIIGDPDPSVKVTRMSKERFQSEWTGLAIFLAPQPN | not soluble
VPTPKRPRGRPKGSKNKGAAKTRKT | soluble
VQLSPDLLATLPEPASPGRQACGRRHKKRTFLRPRIIGGSSSLPGSHPWLAAIYIGDSFCAGSLVHTCWVVSAAHCFSHSPPRDSVSVVLGQHFFNRTTDVTQTFGIEKYIPYTLYSVFNPSDHDLVLIRLKKKGDRCATRSQFVQPICLPEPGSTFPAGHKCQIAGWGHLDENVSGYSSSLREALVPLVADHKCSSPEVYGADISPNMLCAGYFDCKSDACQGDSGGPLACEKNGVAYLYGIISWGDGCGRLHKPGVYTRVANYVDWINDRIRPPRRLVAPS | soluble
VQTGIDTLLPDYKKQLKGKRIGLITNPAGVNTSLKSSVDILYENPDIKLTALFGPEHGVRGDAQAGDEVGSYIDEKTGVPVYSLYGKTKKPTPEMLKNVDILMFDIQDVGTRFYTYIYTMAYAMEAAKENGIPFMVLDRPNPQGGNHIEGPILEPEYASFVGLYPIPLKHGMTIGELASLFNKEFSIDADLTVVKMKHWKRKMDFDDTRLPFVLPSPNMPTVESTFVYPATGLIEGTNISEGRGTTKPFELIGAPFIKSTELEETLNSLHLPGVTFRAASFTPTFSKHQGTLCHGVQLYVTDRDKFEAVKTGLSVIKTIHDLYPEDFEFLSTGSFDKLAGNGWIRTKIENGTSVENIINSYEKTLQQFSKTRKKYLIY | soluble
VRIPALERGPGLKDLAIFSRQLATMLGAGLTLLQALAILERQTENRKFREILKQVRTDVEGGMAFSEALSKHKIFSRLYVNLVRAGETSGGLDLILDRLASFLEKELELRGKIRSA | soluble
VRLSRFDLAFDIFNRPEIVNLQHIKGGVTHKVFYGRGGELETKYWGSSGSNVQVRLYDKNKEIIAHKREEKLDLGVNPFWWRLEFQLRTKAIGEDMVQDIMNRLDNFGFYKLEHIRVDQRAFTIIFLSNPELLSLAFPNLKSDSIKKKKTRVRKLLREETNQFAEELKEVLIQNLPKLNTELQLLVGEFLTLEN | not soluble
VSAEEQDTRSGGIQVIARAAELLRVLQAHPGGLSQAEIGERVGMARSTVSRILNALEDEGLVASRGARGPYRLGPEITRMATTVRLGVVTEMHPFLTELSRELDETVDLSILDGDRADVVDQVVPPQRLRAVSAVGESFPLYCCANGKALLAALPPERQARALPSRLAPLTANTITDRAALRDELNRIRVDGVAYDREEQTEGICAVGAVLRGVSVELVAVSVPVPAQRFYGREAELAGALLAWVSKVDAWFNGTEDRK | not soluble
VSIYLKPIINKLTPESRNTLDSAINYAISRSHHEVDCLHLLWKLLQEHKYIAEVLYEQSLFNPEWVLNAIESELIRINTVPQSSPVFSESMQTLLEKTWIHASTKWQIDHIDIPVFLSTMINFRDSIFPLNVSDALCCDMDVAEELLISFSDEAEHSASHRPTDRSSHEYLSKYTENLSLRAETGKLDPVTGREKEVRQLIDILLRRRQNNPILTGEPGVGKSSIVEGLALQIASGRVPDVLKNVRIHALDMGALLAGASVRGEFENRLKSLLTELNSLDGTAILFIDEAHSLIGAGGLPGQTDAANLLKPALARGELRIIAATTWGEYKKYFEKDGALARRFQIVKVAEPNQDVTAEMLRSLLPMMEKHHNVSIREEAITATVHLSDRYLHGRRQPDKSVSLLDTACSRVAVSQSTSPDAIQDVEASLVRYQGELALLTQERSDVLRQEMLANKIAQLEEELEQLKSAWRHQSELVAKIQSSDDISSKNMYRKELESAYKKDSPMVFECVDKNCVADVVSGWTGVPLGVCLDGEQQKASGLLRCLEQRVLGQRYAMSAIASQVLICRADLKDPVKPDGVFLLAGPSGTGKTETARALAEFVYGDENKLITINMTEFQEAHTVSTLKGAPPGYVGFGQGGTLTERVSHNPYSVILLDEIEKAHPDVLEFFFQIFDSGIIEDAEGKMVSFRDCLIIMTSNFASENITNIWNDGETNRDRIKEMLLPLFNEHFGAAFMGRTNLIPFTPLHSKTLRDIVLIKIDKICQRFEQASGQMYKIEYNDSLIDWITHHCQCDKSGARDIDSVLNSTVLPVLARYLTDSEDNRTPKKIRISVRKNNITLRSSQFATRN | not soluble
VSTTPAAGVLDTSVFIATESGRQLDEALIPDRVATTVVTLAELRVGVLAAATTDIRAQRLATLESVADMETLPVDDDAARMWARLRIHLAESGRRVRINDLWIAAVAASRALPVITQDDDFAALDGAASVEIIRV | not soluble
